B1: Conjugate 10: D04-Y180/F404/K42/E161-LP4 (antibody, human IgG1, kappa)
heavy: MEVQLVESGGGLVQPGGSLRLSCAASGFNISDYDIHWVRQAPGKGLEWVGGIDPADGSTDYADSVKGRFTISADTSKNTAYLQMNSLRAEDTAVYYCARDYGVYDYWGQGTLVTVSSASTKGPSVFPLAPSSKSTSGGTAALGCLVKDYFPEPVTVSWNSGALTSGVHTFPAVLQSSGLSLSSVVTVPSSSLGTQTYICNVNHKPSNTKVDKKVEPKSCDKTHTCPPCPAPELLGGPSVFLFPPKPKDTLMISRTPEVTCVVVDVSHEDPEVKFNWYVDGVEVHNAKTKPREEQYNSTYRVVSVLTVLHQDWLNGKEYKCKVSNKALPAPIEKTISKAKGQPREPQVYTLPPSREEMTKNQVSLTCLVKGFYPSDIAVEWESNGQPENNYKTTPPVLDSDGSFLYSKLTVDKSRWQQGNVFSCSVMHEALHNHYTQKSLSLSPGK
light: MDIQMTQSPSSLSASVGDRVTITCRASQDVNTAVAWYQQKPGAPKLLIYSASFLYSGVPSRFSGSRSGTDFTLTISSLQPEDFATYYCQQHYTTPPTFGQGTKVEIKRTVAAPSVFIFPPSDEQLKSGTASVVCLLNNFYPREAKVQWKVDNALQSGNSQSVTEQDSKDSTYSLSSTLTLSKADYEKHKVYACEVTHQGLSSPVTKSFNRGEC
modifications: pAMF at K42 and E161 (printed * in the sequence), linked to LP4; pAMF at Y180 and F404 (printed * in the sequence), linked to LP4
B2: Conjugate 4: D04-Y180/F404/K42/E161-LP1 (antibody, human IgG1, kappa)
heavy: B1 heavy
light: B1 light
modifications: pAMF at K42 and E161 (printed * in the sequence), linked to LP1; pAMF at Y180 and F404 (printed * in the sequence), linked to LP1
B3: Conjugate 39: D04-Y180F404/K42/E161-LP22 (antibody, human IgG1, kappa)
heavy: B1 heavy
light: B1 light
modifications: pAMF at K42 and E161 (printed * in the sequence), linked to LP22; pAMF at Y180 and F404 (printed * in the sequence), linked to LP22
B4: Conjugate 40: D04-Y180F404/K42/E161-LP21 (antibody, human IgG1, kappa)
heavy: B1 heavy
light: B1 light
modifications: pAMF at K42 and E161 (printed * in the sequence), linked to LP21; pAMF at Y180 and F404 (printed * in the sequence), linked to LP21
B5: Conjugate 8: D04-Y180/F404/K42/E161-LP2 (antibody, human IgG1, kappa)
heavy: B1 heavy
light: B1 light
modifications: pAMF at K42 and E161 (printed * in the sequence), linked to LP2; pAMF at Y180 and F404 (printed * in the sequence), linked to LP2
B6: Conjugate 9: D04-Y180/F404/K42/E161-LP3 (antibody, human IgG1, kappa)
heavy: B1 heavy
light: B1 light
modifications: pAMF at K42 and E161 (printed * in the sequence), linked to LP3; pAMF at Y180 and F404 (printed * in the sequence), linked to LP3
B7: Conjugate 11: D04-Y180/F404/K42/E161-LP7 (antibody, human IgG1, kappa)
heavy: B1 heavy
light: B1 light
modifications: pAMF at K42 and E161 (printed * in the sequence), linked to LP7; pAMF at Y180 and F404 (printed * in the sequence), linked to LP7
B8: Conjugate 12: D04-Y180/F404/K42/E161-LP5 (antibody, human IgG1, kappa)
heavy: B1 heavy
light: B1 light
modifications: pAMF at K42 and E161 (printed * in the sequence), linked to LP5; pAMF at Y180 and F404 (printed * in the sequence), linked to LP5
B9: Conjugate 13: D04-Y180/F404/K42/E161-LP6 (antibody, human IgG1, kappa)
heavy: B1 heavy
light: B1 light
modifications: pAMF at K42 and E161 (printed * in the sequence), linked to LP6; pAMF at Y180 and F404 (printed * in the sequence), linked to LP6
B10: Conjugate 14: D04-Y180/F404/K42/E161-LP12 (antibody, human IgG1, kappa)
heavy: B1 heavy
light: B1 light
modifications: pAMF at K42 and E161 (printed * in the sequence), linked to LP12; pAMF at Y180 and F404 (printed * in the sequence), linked to LP12
B11: Conjugate 15: D04-Y180/F404/K42/E161-LP13 (antibody, human IgG1, kappa)
heavy: B1 heavy
light: B1 light
modifications: pAMF at K42 and E161 (printed * in the sequence), linked to LP13; pAMF at Y180 and F404 (printed * in the sequence), linked to LP13
B12: Conjugate 16: D04-Y180/F404/K42/E161-LP34 (antibody, human IgG1, kappa)
heavy: B1 heavy
light: B1 light
modifications: pAMF at K42 and E161 (printed * in the sequence), linked to LP34; pAMF at Y180 and F404 (printed * in the sequence), linked to LP34
B13: Conjugate 4 (2188-D04-Y180/F404/K42/E161-LP1) (antibody, human IgG1, kappa)
heavy: B1 heavy
light: B1 light
modifications: pAMF in place of K42 and E161, printed '*', conjugated to LP1; pAMF in place of Y180 and F404 (EU), printed '*', conjugated to LP1
B14: Conjugate 7 (2188-D04-Y180/F404/K42/E161-LP10) (antibody, human IgG1, kappa)
heavy: B1 heavy
light: B1 light
modifications: pAMF in place of K42 and E161, printed '*', conjugated to LP10; pAMF in place of Y180 and F404 (EU), printed '*', conjugated to LP10

target: T1, ROR1 antigen expressed on ROR1 positive Ntera-2 cells (UniProt Q01973 30-937); assay: cell-based or functional assay

Row | Binder | NTERA-2 cell killing EC50 | NTERA-2 cell killing Span (%)
1 | B1 | 0.019 nM | 86%
2 | B2 | 0.067 nM | 60%

target: T1, ROR1 antigen expressed on ROR1 positive …; assay: cell-based or functional assay; remark: another data set of the same source

Row | Binder | NTERA-2 cell killing EC50 | NTERA-2 cell killing Span (%)
3 | B1 | 0.013 nM | 89%
4 | B2 | 0.05 nM | 65%
5 | B3 | 0.215 nM | 54%
6 | B4 | 0.076 nM | 68%

target: T1, ROR1 antigen expressed on ROR1 positive …; assay: cell-based or functional assay; remark: another data set of the same source

Row | Binder | NTERA-2 cell killing EC50 | NTERA-2 cell killing Span (%)
7 | B5 | > 10 nM | < 10%
8 | B6 | 0.027 nM | 94%
9 | B1 | 0.004 nM | 77%
10 | B7 | > 10 nM | < 10%
11 | B8 | – | 94%
12 | B9 | 0.028 nM | 38%
13 | B10 | 0.036 nM | 56%
14 | B11 | 0.072 nM | –
15 | B2 | 0.023 nM | 58%
16 | B12 | > 10 nM | < 10%

target: T1, ROR1 antigen expressed on ROR1 positive …; assay: cell-based or functional assay; remark: another data set of the same source

Row | Binder | NTERA-2 cell killing EC50 | NTERA-2 cell killing Span (%)
17 | B6 | 0.119 nM | 63%
18 | B1 | 0.003 nM | 96%

target: human ROR1 (hROR1) (human, UniProt Q01973 30-937); assay: cell-based or functional assay

Row | Binder | NTERA-2 cell killing EC50 | NTERA-2 cell killing Span
19 | B13 | 0.022 nM | 63%
20 | B14 | 0.048 nM | 94%
